Measured values reported in US20230357348A1 (AstraZeneca / MedImmune, published 2023).
Starred links: 1 amine or outer side, 2 acyl side, 3 side chain; linkers in the order of their positions; H or OH if unused. Non-standard residues stand in square brackets, D forms with d. Groups on a side chain read outwards from the residue. No end group written: not given here. *: point of attachment. Trp(5-Br) = N[C@@H](Cc1c[nH]c2ccc(Br)cc12)C(=O)O; C20 diacid = O=C(O)CCCCCCCCCCCCCCCCCCC(=O)*; Bip = N[C@@H](Cc1ccc(-c2ccccc2)cc1)C(=O)O; C18 diacid = O=C(O)CCCCCCCCCCCCCCCCC(=O)*; γGlu = O=C(O)[C@H](CCC(=O)[*:2])N[*:1]; αMeF = C[C@](N)(Cc1ccccc1)C(=O)O; AEEA = NCCOCCOCC(=O)O; Aib = CC(C)(N)C(=O)O

Experiments:
[1] = molecular target: human glucagon receptor (hGCGR) (human, UniProt P47871 26-477); test: cell-based or functional assay
Sequence of human glucagon receptor (hGCGR) (P47871 26-477): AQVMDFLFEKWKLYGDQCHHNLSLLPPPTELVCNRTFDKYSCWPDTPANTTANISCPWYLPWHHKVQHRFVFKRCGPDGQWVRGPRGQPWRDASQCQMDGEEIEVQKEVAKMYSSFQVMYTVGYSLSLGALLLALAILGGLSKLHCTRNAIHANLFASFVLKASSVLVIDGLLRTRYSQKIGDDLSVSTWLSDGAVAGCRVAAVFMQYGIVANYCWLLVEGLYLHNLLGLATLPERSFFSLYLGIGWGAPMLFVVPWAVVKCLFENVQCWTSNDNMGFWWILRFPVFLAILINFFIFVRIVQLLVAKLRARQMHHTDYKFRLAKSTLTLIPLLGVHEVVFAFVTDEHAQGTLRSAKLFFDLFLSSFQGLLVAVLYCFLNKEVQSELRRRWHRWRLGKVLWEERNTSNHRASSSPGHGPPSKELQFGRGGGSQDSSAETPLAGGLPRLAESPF

[2] = molecular target: human GLP-1 receptor (hGLP-1R) (human, UniProt P43220 24-463); test: cell-based or functional assay

Binder | hGluc-R EC50 (pM) [1] [pM] | hGLP-1R EC50 (pM) [2] [pM]
H[Aib]QGTFTSDVSK[αMeF]LDSK([AEEA-AEEA-γGlu-C18 diacid])RAQDFVR[Trp(5-Br)]LL[Aib]E-OH (N-terminus assumed; SMILES CC(C)C[C@H](NC(=O)[C@H](Cc1c[nH]c2ccc(Br)cc12)NC(=O)[C@H](CCCNC(=N)N)NC(=O)[C@@H](NC(=O)[C@H](Cc1ccccc1)NC(=O)[C@H](CC(=O)O)NC(=O)[C@H](CCC(N)=O)NC(=O)[C@H](C)NC(=O)[C@H](CCCNC(=N)N)NC(=O)[C@H](CCCCNC(=O)COCCOCCNC(=O)COCCOCCNC(=O)CC[C@H](NC(=O)CCCCCCCCCCCCCCCCC(=O)O)C(=O)O)NC(=O)[C@H](CO)NC(=O)[C@H](CC(=O)O)NC(=O)[C@H](CC(C)C)NC(=O)[C@](C)(Cc1ccccc1)NC(=O)[C@H](CCCCN)NC(=O)[C@H](CO)NC(=O)[C@@H](NC(=O)[C@H](CC(=O)O)NC(=O)[C@H](CO)NC(=O)[C@@H](NC(=O)[C@H](Cc1ccccc1)NC(=O)[C@@H](NC(=O)CNC(=O)[C@H](CCC(N)=O)NC(=O)C(C)(C)NC(=O)[C@@H](N)Cc1c[nH]cn1)[C@@H](C)O)[C@@H](C)O)C(C)C)C(C)C)C(=O)N[C@@H](CC(C)C)C(=O)NC(C)(C)C(=O)N[C@@H](CCC(=O)O)C(=O)O) [Peptide 434] | 294 | 153
H[Aib]QGTFTSDVSK[αMeF]LDSK([AEEA-AEEA-γGlu-C18 diacid])RAQDFVR[Bip]LL[Aib]E-OH (N-terminus assumed; SMILES CC(C)C[C@H](NC(=O)[C@H](Cc1ccc(-c2ccccc2)cc1)NC(=O)[C@H](CCCNC(=N)N)NC(=O)[C@@H](NC(=O)[C@H](Cc1ccccc1)NC(=O)[C@H](CC(=O)O)NC(=O)[C@H](CCC(N)=O)NC(=O)[C@H](C)NC(=O)[C@H](CCCNC(=N)N)NC(=O)[C@H](CCCCNC(=O)COCCOCCNC(=O)COCCOCCNC(=O)CC[C@H](NC(=O)CCCCCCCCCCCCCCCCC(=O)O)C(=O)O)NC(=O)[C@H](CO)NC(=O)[C@H](CC(=O)O)NC(=O)[C@H](CC(C)C)NC(=O)[C@](C)(Cc1ccccc1)NC(=O)[C@H](CCCCN)NC(=O)[C@H](CO)NC(=O)[C@@H](NC(=O)[C@H](CC(=O)O)NC(=O)[C@H](CO)NC(=O)[C@@H](NC(=O)[C@H](Cc1ccccc1)NC(=O)[C@@H](NC(=O)CNC(=O)[C@H](CCC(N)=O)NC(=O)C(C)(C)NC(=O)[C@@H](N)Cc1c[nH]cn1)[C@@H](C)O)[C@@H](C)O)C(C)C)C(C)C)C(=O)N[C@@H](CC(C)C)C(=O)NC(C)(C)C(=O)N[C@@H](CCC(=O)O)C(=O)O) [Peptide 432] | 1160 | 1380
H[Aib]QGTFTSDVSK[αMeF]LDTK([AEEA-AEEA-γGlu-γGlu-C18 diacid])RAQDFVAWLEA[Aib]G-NH2 (N-terminus assumed; SMILES CC(C)C[C@H](NC(=O)[C@H](Cc1c[nH]c2ccccc12)NC(=O)[C@H](C)NC(=O)[C@@H](NC(=O)[C@H](Cc1ccccc1)NC(=O)[C@H](CC(=O)O)NC(=O)[C@H](CCC(N)=O)NC(=O)[C@H](C)NC(=O)[C@H](CCCNC(=N)N)NC(=O)[C@H](CCCCNC(=O)COCCOCCNC(=O)COCCOCCNC(=O)CC[C@H](NC(=O)CC[C@H](NC(=O)CCCCCCCCCCCCCCCCC(=O)O)C(=O)O)C(=O)O)NC(=O)[C@@H](NC(=O)[C@H](CC(=O)O)NC(=O)[C@H](CC(C)C)NC(=O)[C@](C)(Cc1ccccc1)NC(=O)[C@H](CCCCN)NC(=O)[C@H](CO)NC(=O)[C@@H](NC(=O)[C@H](CC(=O)O)NC(=O)[C@H](CO)NC(=O)[C@@H](NC(=O)[C@H](Cc1ccccc1)NC(=O)[C@@H](NC(=O)CNC(=O)[C@H](CCC(N)=O)NC(=O)C(C)(C)NC(=O)[C@@H](N)Cc1c[nH]cn1)[C@@H](C)O)[C@@H](C)O)C(C)C)[C@@H](C)O)C(C)C)C(=O)N[C@@H](CCC(=O)O)C(=O)N[C@@H](C)C(=O)NC(C)(C)C(=O)NCC(N)=O) [Peptide 431] | 194 | 44.6
H[Aib]QGTFTSDVSK[αMeF]LDRK([AEEA-AEEA-γGlu-C20 diacid])RAQDFVRWLV[Aib]E-NH2 (N-terminus assumed; SMILES CC(C)C[C@H](NC(=O)[C@H](Cc1c[nH]c2ccccc12)NC(=O)[C@H](CCCNC(=N)N)NC(=O)[C@@H](NC(=O)[C@H](Cc1ccccc1)NC(=O)[C@H](CC(=O)O)NC(=O)[C@H](CCC(N)=O)NC(=O)[C@H](C)NC(=O)[C@H](CCCNC(=N)N)NC(=O)[C@H](CCCCNC(=O)COCCOCCNC(=O)COCCOCCNC(=O)CC[C@H](NC(=O)CCCCCCCCCCCCCCCCCCC(=O)O)C(=O)O)NC(=O)[C@H](CCCNC(=N)N)NC(=O)[C@H](CC(=O)O)NC(=O)[C@H](CC(C)C)NC(=O)[C@](C)(Cc1ccccc1)NC(=O)[C@H](CCCCN)NC(=O)[C@H](CO)NC(=O)[C@@H](NC(=O)[C@H](CC(=O)O)NC(=O)[C@H](CO)NC(=O)[C@@H](NC(=O)[C@H](Cc1ccccc1)NC(=O)[C@@H](NC(=O)CNC(=O)[C@H](CCC(N)=O)NC(=O)C(C)(C)NC(=O)[C@@H](N)Cc1c[nH]cn1)[C@@H](C)O)[C@@H](C)O)C(C)C)C(C)C)C(=O)N[C@H](C(=O)NC(C)(C)C(=O)N[C@@H](CCC(=O)O)C(N)=O)C(C)C) [Peptide 437] | 96.9 | 26.9
H[Aib]QGTFTSDVSK[αMeF]LDSK([AEEA-AEEA-γGlu-γGlu-C18 diacid])RAQDFVRWLEA[Aib]G-NH2 (N-terminus assumed; SMILES CC(C)C[C@H](NC(=O)[C@H](Cc1c[nH]c2ccccc12)NC(=O)[C@H](CCCNC(=N)N)NC(=O)[C@@H](NC(=O)[C@H](Cc1ccccc1)NC(=O)[C@H](CC(=O)O)NC(=O)[C@H](CCC(N)=O)NC(=O)[C@H](C)NC(=O)[C@H](CCCNC(=N)N)NC(=O)[C@H](CCCCNC(=O)COCCOCCNC(=O)COCCOCCNC(=O)CC[C@H](NC(=O)CC[C@H](NC(=O)CCCCCCCCCCCCCCCCC(=O)O)C(=O)O)C(=O)O)NC(=O)[C@H](CO)NC(=O)[C@H](CC(=O)O)NC(=O)[C@H](CC(C)C)NC(=O)[C@](C)(Cc1ccccc1)NC(=O)[C@H](CCCCN)NC(=O)[C@H](CO)NC(=O)[C@@H](NC(=O)[C@H](CC(=O)O)NC(=O)[C@H](CO)NC(=O)[C@@H](NC(=O)[C@H](Cc1ccccc1)NC(=O)[C@@H](NC(=O)CNC(=O)[C@H](CCC(N)=O)NC(=O)C(C)(C)NC(=O)[C@@H](N)Cc1c[nH]cn1)[C@@H](C)O)[C@@H](C)O)C(C)C)C(C)C)C(=O)N[C@@H](CCC(=O)O)C(=O)N[C@@H](C)C(=O)NC(C)(C)C(=O)NCC(N)=O) [Peptide 430] | 160 | 24.4
H[Aib]QGTFTSDVSK[αMeF]LDRK([AEEA-AEEA-γGlu-C18 diacid])RAQDFVRWLV[Aib]E-NH2 (N-terminus assumed; SMILES CC(C)C[C@H](NC(=O)[C@H](Cc1c[nH]c2ccccc12)NC(=O)[C@H](CCCNC(=N)N)NC(=O)[C@@H](NC(=O)[C@H](Cc1ccccc1)NC(=O)[C@H](CC(=O)O)NC(=O)[C@H](CCC(N)=O)NC(=O)[C@H](C)NC(=O)[C@H](CCCNC(=N)N)NC(=O)[C@H](CCCCNC(=O)COCCOCCNC(=O)COCCOCCNC(=O)CC[C@H](NC(=O)CCCCCCCCCCCCCCCCC(=O)O)C(=O)O)NC(=O)[C@H](CCCNC(=N)N)NC(=O)[C@H](CC(=O)O)NC(=O)[C@H](CC(C)C)NC(=O)[C@](C)(Cc1ccccc1)NC(=O)[C@H](CCCCN)NC(=O)[C@H](CO)NC(=O)[C@@H](NC(=O)[C@H](CC(=O)O)NC(=O)[C@H](CO)NC(=O)[C@@H](NC(=O)[C@H](Cc1ccccc1)NC(=O)[C@@H](NC(=O)CNC(=O)[C@H](CCC(N)=O)NC(=O)C(C)(C)NC(=O)[C@@H](N)Cc1c[nH]cn1)[C@@H](C)O)[C@@H](C)O)C(C)C)C(C)C)C(=O)N[C@H](C(=O)NC(C)(C)C(=O)N[C@@H](CCC(=O)O)C(N)=O)C(C)C) [Peptide 436] | 68.8 | 7.43
H[Aib]QGTFTSDVSK[αMeF]LDSK([AEEA-AEEA-γGlu-C18 diacid])RAQDFVRWLEA[Aib]G-NH2 (N-terminus assumed; SMILES CC(C)C[C@H](NC(=O)[C@H](Cc1c[nH]c2ccccc12)NC(=O)[C@H](CCCNC(=N)N)NC(=O)[C@@H](NC(=O)[C@H](Cc1ccccc1)NC(=O)[C@H](CC(=O)O)NC(=O)[C@H](CCC(N)=O)NC(=O)[C@H](C)NC(=O)[C@H](CCCNC(=N)N)NC(=O)[C@H](CCCCNC(=O)COCCOCCNC(=O)COCCOCCNC(=O)CC[C@H](NC(=O)CCCCCCCCCCCCCCCCC(=O)O)C(=O)O)NC(=O)[C@H](CO)NC(=O)[C@H](CC(=O)O)NC(=O)[C@H](CC(C)C)NC(=O)[C@](C)(Cc1ccccc1)NC(=O)[C@H](CCCCN)NC(=O)[C@H](CO)NC(=O)[C@@H](NC(=O)[C@H](CC(=O)O)NC(=O)[C@H](CO)NC(=O)[C@@H](NC(=O)[C@H](Cc1ccccc1)NC(=O)[C@@H](NC(=O)CNC(=O)[C@H](CCC(N)=O)NC(=O)C(C)(C)NC(=O)[C@@H](N)Cc1c[nH]cn1)[C@@H](C)O)[C@@H](C)O)C(C)C)C(C)C)C(=O)N[C@@H](CCC(=O)O)C(=O)N[C@@H](C)C(=O)NC(C)(C)C(=O)NCC(N)=O) [Peptide 429] | 144 | 15
